According to publication PMC13572408:

Biological target: His6-AstR (Acinetobacter baumannii ATCC 17978VU)
Test: SEC; purified His6-AstR; size estimated with standard curves; Size Exclusion Buffer (50 mM Tris, 300 mM NaCl, pH 8)

stoichiometry N: 2
Substance: His6-AstR (natural protein)
